This note sets out measurements from the supplement of paper PMC12764529.

± gives the half width of the 95% confidence interval.

A short description of series [1]: folding stability dG unfold from chymotrypsin proteolysis; higher = more stable. The method, boiled down: (§1)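 K50 was inferred by Bayesian fitting of sequencing counts obtained after protease digestion of designed mini-proteins. Unfolding free energy was derived by comparison with a sequence-predicted unfolded-state K50 and a shared folded-state K50, for each protease or both combined. The mini-proteins were under 80 residues, had no cysteine, were carried in a PA-tagged cDNA display construct, and were kept only if AlphaFold2 dimer inter-PAE exceeded 15.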

The nature of series [2]: folding stability dG unfold from trypsin proteolysis; higher = more stable. In short, it runs like this:
as §1

A short description of series [3]: folding stability dG unfold (combined trypsin and chymotrypsin); higher = more stable. In short, it runs like this:
as §1

Take “SHPDEFPKELVDAIAKAFPNIKRIEVEPLPDKFVLLKVEFIDGDGEGRVAFAVPTPDGETALHEYLVRNPSA [r9_678_TrMRF]”: the “folding stability dG unfold” value came to 1.23 ± 0.062 kcal/mol in series [1], 1 ± 0.013 kcal/mol in series [2] and 1.14 ± 0.056 kcal/mol in series [3].
Turning to “SHWVRKELQEKGYPVKDIEMNPPQGYFYITIQRKRPRKGKPKKKEITIPMDPNMTPDNMLWMARNALDAYSA [r9_184_TrROS]”, the entries for the “folding stability dG unfold” value in series [1], in series [2] and in series [3] were 0.594 ± 0.14 kcal/mol, 1.05 ± 0.14 kcal/mol and 0.804 ± 0.1 kcal/mol, respectively.
In the case of “SIEFKEGQWFPIREIDNNHIEWKHNNEPYKIPPDEIDEPGDWIRITNGRIPEIRPPPPPPVDPEDAKKKKSA [r9_842_TrROS]”, the “folding stability dG unfold” value in series [1] was determined as 4.12 ± 0.32 kcal/mol; in series [2], 2.6 ± 0.32 kcal/mol; in series [3], 3.51 ± 0.33 kcal/mol.
For the sequence “SIINALREALKDGKPGQEIPIMMPPDGMGELMNWLQDYGFKPKKMEPMPMNNRPMYTHEFTIDPKNGKFRSA [r9_498_TrROS]”, the “folding stability dG unfold” value is 0.26 ± 0.26 kcal/mol in series [1], -0.0613 ± 0.39 kcal/mol in series [2] and 0.0967 ± 0.29 kcal/mol in series [3].
On to “SIKELAKELPGFQVSVEPDDPGQVKITIMVPDDPQQQKRFQNKIIELANDIQGEHGMPVTIEIQPVPPGDSA [r9_1099_TrROS]”, for which the “folding stability dG unfold” value is 0.0536 ± 0.096 kcal/mol in series [1], -0.238 ± 0.056 kcal/mol in series [2] and -0.00283 ± 0.081 kcal/mol in series [3].
As for “SIKLSNGETIEYEPSPNKTYTIKHPDGRVVKILKVEREKDKYTVEIQFDDGSTKTIEIPPDKPEIIEKELLS [r1_66_JUSTAS]”, the figures for the “folding stability dG unfold” value in series [1], in series [2] and in series [3] were 0.951 ± 0.08 kcal/mol, 1.37 ± 0.027 kcal/mol and 1.24 ± 0.12 kcal/mol, respectively.
Regarding “SIRGMPPEVVLYIIRFFAREQKNKGMPPDDRPIEINIMMPNPEARKDAKKEIKEENPGIKDVKIEVMPPNSA [r9_341_TrROS]”, the “folding stability dG unfold” value in series [1] is 3.1 ± 0.17 kcal/mol; in series [2], 2.2 ± 0.11 kcal/mol; in series [3], 2.61 ± 0.56 kcal/mol.
On to “SITIMVDNLPPGATAEELASTLFNWIQQFGWEVTPIKITPMPDNWVTVEIEFKNNGKPIFRETIEFRPDASA [r9_953_TrROS]”, for which the “folding stability dG unfold” value was found to be 3.56 ± 0.06 kcal/mol in series [1], 2.4 ± 0.092 kcal/mol in series [2] and 3.26 ± 0.09 kcal/mol in series [3].
“SIVIRLPDGKPLMIQLTMYYPPDNDKIEIPVEIYDGGKPRTFEHEIPPGDNKPVTFSLHIPLPPGAYIKISA [r9_973_TrROS]”: the “folding stability dG unfold” value in series [1] turned out to be 2.45 ± 0.14 kcal/mol; in series [2], 2.17 ± 0.12 kcal/mol; in series [3] it was 2.38 ± 0.23 kcal/mol.
Regarding “SIWFSPGKKYKIDEIRFGGWEIEKFTAQVGPDGNIQIPMDIKPVKKPPPPPPVVRNPEDGKYYDPGDPKDSA [r9_603_TrROS]”, the figures for the “folding stability dG unfold” value in series [1], in series [2] and in series [3] were 1.64 ± 0.25 kcal/mol, -0.127 ± 0.39 kcal/mol and 1.04 ± 0.78 kcal/mol, respectively.
In the case of “SIYIMLPVPPGKPYKLSIEIEMPDNGRPYEYDGTFNPENGWVMFPVRFPDNGHPIPPEDFKVKVELEPPKSA [r9_928_TrROS]”, the “folding stability dG unfold” value is 2.45 ± 0.14 kcal/mol in series [1], 1.42 ± 0.072 kcal/mol in series [2] and 2.07 ± 0.23 kcal/mol in series [3].
In the case of “SKDPNNEWVVIKFEVTIPVPPGQKPITADEIASQVRQIMQNHGMEITSVEVEYRGNQVTVSVEIVIPKKASA [r9_1134_TrROS]”, the “folding stability dG unfold” value in series [1] was found to be 3.32 ± 0.11 kcal/mol; in series [2] it was 3.23 ± 0.19 kcal/mol; in series [3] it was 3.22 ± 0.18 kcal/mol.
As for “SKEEEEEIEIEIVVPNLTEEEIKELAKELLEKKGYEVEEIEITEEELEELKNKKPGDEVVIKIKIKVKKKSA [r9_1163_TrROS_Hall]”, the “folding stability dG unfold” value in series [1] is 2.27 ± 0.073 kcal/mol; in series [2], 2.51 ± 0.19 kcal/mol; in series [3], 2.51 ± 0.2 kcal/mol.
Take “SKEVKITIEVKEVNGKLYVVVKVEVNGKEETLVFKSLEEAKNAIAKKLGLPKEKIKIKKVEVYKVSKKDLSA [r9_909_TrROS_Hall]”: the “folding stability dG unfold” value is 0.869 ± 0.21 kcal/mol in series [1], 0.964 ± 0.16 kcal/mol in series [2] and 1.07 ± 0.24 kcal/mol in series [3].
For the sequence “SKGKKTVTINFMLKVEDPEDLPPGQEVKIPPEFIDFLRDQGFKITEIKIRVVPPPDGDVYVMFSSTIEVDSA [r9_465_TrROS]”, the “folding stability dG unfold” value in series [1] was found to be 3.53 ± 0.1 kcal/mol; in series [2] it was 1.99 ± 0.097 kcal/mol; in series [3], 2.88 ± 0.34 kcal/mol.
Regarding “SKGTFMAMMPLDEIKEIVENFAKQGWNIKIKPKSIQPFPFPHNDEDGEPEPYPMVMVEVEIKIVPPGDPPSA [r9_991_TrROS]”, the figures for the “folding stability dG unfold” value in series [1], in series [2] and in series [3] were 1.89 ± 0.086 kcal/mol, 1.33 ± 0.024 kcal/mol and 1.64 ± 0.097 kcal/mol, respectively.
With “SKIEIEVFPEEGFIRIRLEAENLTEEELKDAIIEFIKSLGFPAEVEILRIEPSGNTIRIEALVKVEPGYLSA [r9_347_TrMRF]”, the entries for the “folding stability dG unfold” value in series [1], in series [2] and in series [3] were 2.673 ± 0.022 kcal/mol, 3.27 ± 0.12 kcal/mol and 2.97 ± 0.093 kcal/mol, respectively.
As to “SKIRIIRPERSLEIDLPKSARIEFDPETRRIYFINPDGERLEFPLGPNAVIIPGDDEITIIDPPASPENPSA [r9_653_TrMRF]”, the “folding stability dG unfold” value in series [1] is 3.68 ± 0.042 kcal/mol; in series [2], 2.21 ± 0.038 kcal/mol; in series [3], 3.19 ± 0.079 kcal/mol.
As for “SKKIKIILRYPDGWYVKAEMEVPNGKERDIWFPNPEEAIEWAKTIARQFNPGVEIEDIETVPPDDLPPNFSA [r9_137_TrROS]”, the “folding stability dG unfold” value in series [1] worked out at 1.86 ± 0.077 kcal/mol; in series [2], 1.21 ± 0.084 kcal/mol; in series [3], 1.61 ± 0.23 kcal/mol.
Turning to “SKKKTLKIVDKETNVVIEMTAEELAEKLGLSVEDLEIEVVDLKTKEVKTIKIKLPKPKPEEKKKVKEEEKSA [r9_819_TrROS_Hall]”, the results for the “folding stability dG unfold” value in series [1], in series [2] and in series [3] were 1.18 ± 0.046 kcal/mol, -0.336 ± 0.23 kcal/mol and 0.75 ± 0.15 kcal/mol, respectively.
In the case of “SKKKVTIEIEIVVRVPEGDELKNMTAEELAALLAEELGVEVEIVEVELVEYDEETGEYYVRIKVKITFPESA [r9_107_TrROS_Hall]”, the results for the “folding stability dG unfold” value in series [1], in series [2] and in series [3] were 2.83 ± 0.13 kcal/mol, 2.95 ± 0.17 kcal/mol and 2.76 ± 0.14 kcal/mol, respectively.
For “SKKPKLKIEIEIPEITNMQPDPDNGKYTMRVPFRIKIEWKDNGKEREVDIPIPMNMTVDDARDQLKDLLKSA [r9_656_TrROS]”, in that order: 1.57 ± 0.16 kcal/mol, 0.629 ± 0.044 kcal/mol and 1.1 ± 0.13 kcal/mol.
For the sequence “SKKTVTIELYVPNMTPEQLRALLEALGYKVKKEEFDEDRGVVRLTVELPEDGTTITITIVRPPLPPGEKPSA [r9_1090_TrROS_Hall]”, the “folding stability dG unfold” value in series [1] came to 2.54 ± 0.046 kcal/mol; in series [2], 2.25 ± 0.12 kcal/mol; in series [3], 2.59 ± 0.12 kcal/mol.
As to “SKKVEIKIKVERNEDGYLTVTIEIRAETEEELLEAAKELAKALFPEDVEIRVEKLPDGTVKITIVVKLPPSA [r9_646_TrROS_Hall]”, the “folding stability dG unfold” value was determined as 1.9 ± 0.11 kcal/mol in series [1], 2.65 ± 0.15 kcal/mol in series [2] and 2.29 ± 0.14 kcal/mol in series [3].
Regarding “SKKVKITEITFPEGATFDGKKVTVTIKIVDEETGTVTITEITVDKNGKVTIKEVTVKVDPKTGKIVEITPSA [r9_122_TrROS_Hall]”, the “folding stability dG unfold” value in series [1] is 2.02 ± 0.04 kcal/mol; in series [2], 1.74 ± 0.06 kcal/mol; in series [3], 1.8 ± 0.19 kcal/mol.
Turning to “SKKVKPIATIDVEGMSLEELLAAIKAALPPGEKAIVRIVNADGEVRTIEIDAKTGEIKSLPPGARIYIYPSA [r9_853_TrROS_Hall]”, the “folding stability dG unfold” value in series [1] turned out to be 1.95 ± 0.035 kcal/mol; in series [2] it was 2.1 ± 0.027 kcal/mol; in series [3], 2.02 ± 0.048 kcal/mol.
As to “SKKVTIMIMIRRRDPEDGKYRPIPPEFILEMVRRARKKGKKVKITFMNPDNPWAKRLAKRAKEEGIKIEWSA [r9_468_TrROS]”, the results for the “folding stability dG unfold” value in series [1], in series [2] and in series [3] were 2.1 ± 0.14 kcal/mol, 2 ± 0.05 kcal/mol and 2.1 ± 0.11 kcal/mol, respectively.
For the sequence “SKLKIEEIEINPNMPYTISVKLPDGFYISIQYDPGKPDQMKMNIFPPDGKKREHTIPANEPIRINFEIEPSA [r9_875_TrROS]”, the “folding stability dG unfold” value in series [1] was found to be 2.55 ± 0.04 kcal/mol; in series [2] it was 1.35 ± 0.034 kcal/mol; in series [3], 2.19 ± 0.12 kcal/mol.
In the case of “SKLPPGQPYRRVEMTITFDFKSPKELRKKIRELFGKIEVDMKHNPEDNWYTIDIWFPSPAVMDELKELIFSA [r9_764_TrROS]”, the “folding stability dG unfold” value in series [1] is 3.29 ± 0.061 kcal/mol; in series [2], 3.06 ± 0.17 kcal/mol; in series [3] it was 3.07 ± 0.23 kcal/mol.
“SKLVEKIAEEFGISSAMPHPDGQFMIMFPDGYMIKINIEIDEVKPKPDGKPELDLDIEIEIIPMPPPDDMSA [r9_648_TrROS]”: the “folding stability dG unfold” value was 2.74 ± 0.072 kcal/mol in series [1], 2.05 ± 0.067 kcal/mol in series [2] and 2.39 ± 0.19 kcal/mol in series [3].
As for “SKPDAPKIVELLRELFPDLEITSVSYDPETGTYTVTFPDGVVAEVHVDPNGNVHIVLRTPTSERTFTLPVSA [r9_304_TrMRF]”, the entries for the “folding stability dG unfold” value in series [1], in series [2] and in series [3] were 2.38 ± 0.043 kcal/mol, 2.68 ± 0.1 kcal/mol and 2.55 ± 0.07 kcal/mol, respectively.
As for “SKPETVTFPFNIPLKDMPLEDIKEEAKEWLRNFGYKVEKPEITPEMLKLLKDMPPGQEIPITITIKVEPKSA [r9_1163_TrROS]”, the “folding stability dG unfold” value in series [1] worked out at 1.08 ± 0.18 kcal/mol; in series [2], 0.301 ± 0.12 kcal/mol; in series [3], 0.828 ± 0.085 kcal/mol.
For “SKPIPVKITIETKTNPNGEPITTITIDKGDKTYSLPLGNAKILEIDPEKQYIIIYNPETGSILILKPSDLSA [r9_1186_TrMRF]”, the results for the “folding stability dG unfold” value in series [1], in series [2] and in series [3] were 3.14 ± 0.06 kcal/mol, 2.54 ± 0.059 kcal/mol and 2.95 ± 0.058 kcal/mol, respectively.
For “SKPNLEVKEVEIKMTAEEIKKLLKPNVTKIEKVNGKYYVTVKVNGVLVKIEIKYDKETNEVTVKIYVIKPSA [r9_604_TrROS_Hall]”, the entries for the “folding stability dG unfold” value in series [1], in series [2] and in series [3] were 3.115 ± 0.03 kcal/mol, 2.37 ± 0.072 kcal/mol and 2.88 ± 0.11 kcal/mol, respectively.
Take “SKTIYIPKNVPIDYILKVVKEAEKKGKPVKIVIETYNNPKVIEALKKAGYKVEIKEDKKKKITLIVVYPESA [r9_759_TrMRF]”: the “folding stability dG unfold” value in series [1] is 4.35 ± 0.11 kcal/mol; in series [2], 3.33 ± 0.2 kcal/mol; in series [3], 4.2 ± 0.39 kcal/mol.
For the sequence “SKTVEITLTNEDGSTVTITFNEETGKIVIKVPPNVSVEQIKALLRKLLPPGAEVTITRTPNGYYEIEVKPSA [r9_933_TrROS_Hall]”, the figures for the “folding stability dG unfold” value in series [1], in series [2] and in series [3] were 4.41 ± 0.13 kcal/mol, 3.68 ± 0.13 kcal/mol and 4.14 ± 0.098 kcal/mol, respectively.
